B1: fluorophosphonate-binding hydrolase F (FphF), apo form (enzyme, Staphylococcus aureus, UniProt Q2FUY3 2-253, looked up)
chain: AYISLNYHSPTIGMHQNLTVILPEDQSFFNSDTTVKPLKTLMLLHGLSSDETTYMRYTSIERYANEHKLAVIMPNVDHSAYANMAYGHSYYDYILEVYDYVHQIFPLSKKRDDNFIAGHSMGGYGTIKFALTQGDKFAKAVPLSAVFEAQNLMDLEWNDFSKEAIIGNLSSVKGTEHDPYYLLDKAVAEDKQIPKLLIMCGKQDFLYQDNLDFIDYLSRINVPYQFEDGPGDHDYAYWDQAIKRAITWMVND
B2: FphF with the 2-phenylpiperidine-1-carbonyl moiety of KT129 or KT130 covalently attached to Ser121 (enzyme, Staphylococcus aureus, UniProt Q2FUY3 2-253, looked up)
chain: B1 chain
modifications: 2-phenylpiperidine-1-carbonyl moiety covalently attached to the terminal side chain oxygen atom of Ser121
B3: FphF with the heptyl acyl moiety of 4-MU heptanoate covalently linked to Ser121 (enzyme, Staphylococcus aureus, UniProt Q2FUY3 2-253, looked up)
chain: B1 chain
modifications: heptyl acyl moiety covalently linked to Ser121

Target: the molecule itself
Test: crystal structure

Protein | stoichiometry N
B1 | 4
B2 | 4
B3 | 4

From article PMC12914646 (ACS infectious diseases, 2020)
